Data from the nanobody polyreactivity screen of Harvey et al. (2022).

assay: yeast display, Sf9 membrane polyspecificity reagent, FACS + sequencing; frameworks hold sequencing errors
Method in brief: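 Polyreactivity labels are assigned by the sorting gate from which each nanobody was recovered. The gates were low and high (top ~1%), set on anti-HA fluorescence for expression and streptavidin fluorescence for reagent binding. Before sorting, galactose-induced (36–48 hours) yeast display cells were stained for 1 hour at 4 °C with 10% biotinylated, detergent-solubilized Sf9 membrane reagent.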

Row | Sequence | polyreactivity (PSR sort gate)
1 | QVQLVESGGGLVQAGGSLRLSCAASGSIFGGNDMGWSRQAPGKERAWVAAITATSGSTYYADSVKGRFTISRDNAKNTVYLQMNSLKPEDTAVYYCAAKPVGTYSRPHDYWGQGTQVTVSS | low polyreactivity
2 | QVQLVESGGGLVQAGGSLRLSCAASGFTFQYYAMGWYRQAPGKERELVAAISRSGGSTYYADSVKGRFTISRDNAKNTVYLQMNSLKPEDTAVYYCNAGRYASGKYDYWGQGTQVTVSS | high polyreactivity
3 | QVQLLESGGGLVPAGGSLRLSCAASGRIFSRYAMGWYRQAPGKERELVAAISRNGGSTYYADSVKGRFTISRDNAKNTVYLQMISLKPEDTAVYYCAASYFIYHYDFDYWGQGTQVTVSS | high polyreactivity
4 | QVQLVESGGGLVQAGGSLRLSCAASGFIFGQYAMGWYRQAPGKERELVAAISRSGGSTYYADSVKGRFTISRDNAKNTVYLQMNSLKPEDTAVYYCNRRARGDSYRLDYWGQGTQVTVSS | high polyreactivity
5 | QVQLVESGGGLVQAGGSLRLSCAASGSIFPGYAMGWYRQAPGKERELVATITWSGGSTYYADSVKGRFTISRDNAMNTVYLQMNSLKPEDTAVYYCNADSNWYYQLNYYGLYDYWGQGTQVTVSS | low polyreactivity
6 | QDHLVESGGGIVQAGGSLRLSCAASGRTFHLNAIGWYRQAPGKARELVAAITNSGGRTSNADSVKGRFTISRDNAKNTVYLQMNSLKPQVTEVFFCNVEVTYSSGKYDYWGQGTQVTVSS | low polyreactivity
7 | QVQLVESGGGLVQAGGSLRLSCAASGSIFKTNAMGWYRQAPGKERELVAGISNGGSTNYADSVKGRFTISRDNAKNTVYLQMNSLKPEDTAVYYCAKKGYASRYFIYDYWGQGTQVTVSS | low polyreactivity
8 | QVQLVESGGGIVQAGGSLRLSCAASGRIFSVYAKGWTRQAPGKERELVAAISSGGTTYYADSVKGRFTNSRDNAKNTVYLLMNSQKPDDTAVYYFAASVYYYRYNYWGQGTQVTVSS | low polyreactivity
9 | QVQLVESGGGLVQAGGSLRLSCAASGRIFWPYAMGWYRQAPGKERELVAAISSSGGSTYYADSVKGRFTISRDNAKNTVYLQRNSLKPEDTAVYYCNAYSGLSYRYGYSYWGQGTQVTVSS | high polyreactivity
10 | QVQLLESGGGLVQAGGSLRLSCAASGFIFDESAKGRYRQAPGKERQLVAAISWSGSRTYYADSVKGRFTISRDNAKNTVYLQMNSLKPEDTAVYYCAKVTGVGAGRRNYWGQGTQVTVSS | low polyreactivity
11 | QVQLVESGGGLVQAGGSLRLSCAASGSTIYGYAMGWYRQAPGKERELVAAISWSGGRTYYADSVKGRFTISRDNAKNTVYLQMNSLNPVDTAVYYCNTLRRLTGRYGWSSKYYYWGQGTQVTVSS | high polyreactivity
12 | QVQLVESGGGLVQAGGSLRLSCAASGRTFYFYAMGWYRQAPGKERELVAAIDFSGDSTYYADSVKGRFTISRDNAKNTVYLQMNSLKPEDTAVYYCAAEIYIGEQPYDYWGQGTQVTVSS | low polyreactivity
13 | HVQLVESGGGLVQAGGSLRLSCAASGSTFDVYAMGWYRQAPGKERELVAAISRSGGSTYYADSVKGRFTISRDNAKNTVYLQMNSLKPEDTAVYYCNARLARWGSYEYNYWGQGTQVTVSS | low polyreactivity
14 | QVQLVESGGGLVQAGGSLRLSCAASGIIFYEYVMGWYRQAPGKEREVVATISSIGGATYYADSVKGRFTISRDNAKNTVYLQMNSLKPEDTAVDYCAADPEPVVARGGNWYGDDDWGQGTQVTVSS | high polyreactivity
15 | QVQLVESGGGLVQAGGSLRLSCAASGSTFWPNAMGWYRQAPGKERELVAAISWSSSSGGRTYYADSVKGRFTISRDNAKNTVYLQMNSLKPEDTAVYYCNASYRDEDDYWGQGTQVTVSS | high polyreactivity
16 | QVQLVESGGGLVQAGGSLRLSCAASGRTFYGYAMAWYRQAPGKERELVAAISVSGGSPYYADSVKGRFTISRDNAKNTVYLQMNSQKPEDTAVYYCIAKYSYRRWYDFDYWGQGTQVTVSS | low polyreactivity
17 | QVQLVESGGGLVQSGASLRLSCAASGRISRFNAMGWYRQAPGKERELVAAISSGGSTHYADSVKGRFTISRDNAKITVYLQMNSLKPEDTAVYYCAASVYRWWRLEAYYYWGQGSQVTVSS | high polyreactivity
18 | QVQLVESGGGVVQAGGSLRLSCAASGSIFNRYAMGWYRQAPGKERELVAATSSGGSTYYADSVKGRFTISRDNAKNTVYLQMNSLKPEDTAVYYCAARSRYRSTPPTYDYWGQGTQVTVSS | low polyreactivity
19 | HVQLVESGGGLVQAGGSLRLSCAASGRIFVVYTMGWYRQAPGKERELVASIRGSGDSTNYADSVKGRFTLSRDNAKNTVYLQMNRLKPEDTAVYYCAADLPWSRRYSYRYGYWGQGTQVTVSS | low polyreactivity
20 | QVQLVESGGGLVQAGGSLRLSCAASGFTFVRYAMGWYRQAPGKDRELVAAISKSGGRTYYTDSVKGRFTISRDNAKTTVYLQMNSLKPEDTAVYYCAADPVSDYYGYGYWGQGTQVTVSS | high polyreactivity
21 | QVQHVESGGGLVQAGGSLRLSCAASGSIFVFYAMGWYRQAHGKEREFVASITSSGGSTYYADSVKGRFTISRDNAKNTVYLQMNSLKPEDTAVYYCAARKYRNPYYYRYYYWGQGTQVTVSS | high polyreactivity
22 | QVQLVESGGGLVQAGGSLRLSCAASGRIFRGYAMGWYRQAPGKEREFVAAITKNGGSTYYADSVKGRFTISRDNAKNTVYLQMNSLKPEDTAVYYCNAGTFTRRRGLDYWGQGTQVTVSS | low polyreactivity

Row | Sequence | polyreactivity (PSR sort gate)
23 | QVQLVESGGGLVQAGGSLRLSCAASGRTFVGYTMGWYRQAPGKERELVAAIDLSDGSTSYADSVKGRFTISRDNAKNSVYLQMNSLKPEDTAVYYCAKTWANVYAGAHDYWGQGTQVTVSS | low polyreactivity
24 | QVQLVESGGGLVQAGGSLRLSCAASGRTFYDYTMGWYRQAPGKERELVAVISKRGGSTYYADSVKGRFTISRDNAKNTVYLQMNSLKPEDTAVYYCAAKSGRNVYQKVDYWGQGTQVTVSS | high polyreactivity
25 | QVQLVESGGGLVQPGGSLRLSCAASGGIFYGYAMGWYRQAPGKERELVAAISSTGGRTYYADSVKGRFTISRDNAKNTVYLQMNSLKPEDTAVYYCAAEDFTRQFEYWGQGTQVTVSS | low polyreactivity
26 | QVQLVESGGGLVQAGGSLRLSCAASGIIFKEYALGGYRQAPGKERELVARITGSTGSTYADSVNGRFTISRDNAKNTVYLQMNSLKPEDTAVYYCAKYIGRGERLSDTRYGLDYWGQGTQVSVSS | low polyreactivity
27 | QVQLVESGGGLVQAGGSLRLSCAASGSTLSFNAMGWYRQAPGKERELVAGITYSGGSTYYADSVKGRFTISRDNAKNTVYLQMNSLKPEDTAVYYCNKSSGVYYGHLDYWGQGTQVTVSS | low polyreactivity
28 | QVQLVESGGGLVQAGGSLRLSCAASGRIFKSNAMGWYRQAPGKERELVASISRSGSTNYADSVKGRFTISRDNAKNTVYLQMNSLKPEDTAVYYCAKDPDAKGGGYDYWGQGTQVTVSS | low polyreactivity
29 | QVQLVESGGGLVQAGGSLRLSCAASGSIFHAYAMGWYRQAPGKERELVAAINRGGRTNYADSVKGRFTISRDNAKNTVYLQMNSLKPEDTAVYYCAASYRWVTDKTHYYWGQGTQVTVSS | low polyreactivity
30 | QVQLVESGGGLVQAGGSLRLSCAASGRIFYSYGMGWYRQAPGKERELVATISIGGSTNYADSVKGRFTSSRDNAKNTVYLQMNSLKPEDTAVYYCNARAWFSYTSRRYTYWQEGYWGQGTQVTVSS | high polyreactivity
31 | QVQLVESGGGLVQAGGSLRLSCAASGRTLDSNAMGWYRQAPGKERELVAAISSAGSTNYADSVKGRFTISRDNAKNTVYLQMNSLKPEDTAVYYCAADLIGSHDYWGQGTQVTVSS | low polyreactivity
32 | QVQLVESGGGLVQAGGSLRLTCAASAFIFHFNAMGWYRQAPGKERELVAAISRTGGTTYYADSVKGRFTISRDNAKNTVYLQMNSLKPEDTAVYYCAAYSKYGQHYDYWGQGTQVTVSS | high polyreactivity
33 | QVQLVESGGCLVQAGGSLRLICAASGRTFIAKAMGWYRQAPGKERELVAVITLNGGSTYYADSVKGRFTISRDNAKSTVYLQMNSLKPEDTAVYYCAAGRYYNLRATHGYWGQGTQVTVSS | low polyreactivity
34 | QVQLVESGGGLFQAGGSLRLSCAASGRTFHGYAMGWYRQAPGKERELVARINWSDGRTYYADSVKGRFTISRDNAKNTVYLQMNSLKPEDTAVYYCAADKTVSYAPAWYYYWGQGTQVTVSS | low polyreactivity
35 | QVQLVESGGGLVQAGGSLRLSCAASGSTLVKYAMGWYRQAPGKERELVARITLNGGRTYYADSVKGRFTISRDNAKNTVYLQMNSLKPEDTAVYYCAKSLPHSTSRDYWGQGTQVTVSS | low polyreactivity
36 | QVQLVESAGGLVQAGGSLRLSCAASGRTFGRKAMVWSRQAPGERELGAVISRGGSTYYADTVKGRFTISRDNAKNTVYLQMNILKPEDTAVYYCNADTVYTRTGPYDYWGQGTQVTVSS | low polyreactivity
37 | QVQLEESGGGLVQAGGSLRLSCAASGRTFNKNAMGWYRQAPGKERELVAAISYSGGRTYYADSVKGRFTISRDNAKNTVYLQMNSLKPEDTAVYYCAAWGSSYSFDYWGQGTQVTVSS | high polyreactivity
38 | QVQLVDSGGGLVQAGGSLRLSCADSGSINGNYVMGWYRQAPRKERELVAAIRWTGGSTYYADTVKGRFTISRDNAKNTVYLQMNSLKPEDTAVYYCNAESTYYPSGEDYWGQGTQVNVSS | high polyreactivity
39 | QVQLVESGGGLVQAGGSLRVSCAASGITFAYYAMGWYRHAPGKDRELVAAITRRGSSTYYADSVKGRFTISRDNAKNTVYLQMNSLKPEATAVYYCAAVAYGRERYDYWGPGTQVTVSS | high polyreactivity
40 | QVQLVESGGGLVQAGGSLRLSCAASGSILRSNAMGWYRQAPGKERELVAAITFNGGSTYADSVKGRFTISRDNAKNTVYLQMNSLKPEDTAVYYCATGDGPSLFDYWGQGTQVTVSS | low polyreactivity
41 | QVQLVESGGGLVQAGGSLRLSCAASGRIFDYNVMGWYRQAPGKERELVAGISSGGSTYYADSVKGRFTISRDNAKNTVYLQMNSLKPEDTEVYYCAARGRPYRGYGYWGQGTQVTVSS | high polyreactivity
42 | QVQLVESGGGLVQAGGSLRLSCAASGITFVQYAMGWYRQAPGKERELVAAITSDGRTYYADSVKGRFTISRDNAKNTVYLQMNSLKPEDTAVYYCAADVWRYTAYGGAYRRDYWGQGTQVTVSS | low polyreactivity
43 | QVQLVESGGGLDQAGGSLRLSCAASGRILTGYAMGWYRQAPVKVRELVAAISNDTDSTHYADSVKGRFTISRDNAKKTVYLQMNSLKPEATAVYYCATDAPLQKRWRRFDYWGQGTHVTVSS | low polyreactivity
